Data reported in article PMC6978714, “Protective Allele for Multiple Sclerosis HLA-DRB1*01:01 Provides Kinetic Discrimination of Myelin and Exogenous Antigenic Peptides” (Frontiers in Immunology, 2020).
Values belong to the substance of their own block, whether it stands above or below them. No end group written: not given here.

How the values were obtained:
HLA-DRB1*01:01 [1] = target: T1, HLA-DRB1*01:01 (Homo sapiens, UniProt P01903+P01911, A100R/D57E/F55L/F60I/F76Y/I96L/L162R/M171V/P40L/Q125E/R42F/V115G/Y59C); assay: Peptide binding ELISA (L243 capture, streptavidin-peroxidase); conditions: thioredoxin-fused biotinylated MBP fragments 750 nM, HLA-DR 150 nM, overnight, 37°C
HLA-DRB1*15:01 [2] = target: T2, HLA-DRB1*15:01 (Homo sapiens, UniProt P01903+P01911); assay: as above; conditions: thioredoxin-fused biotinylated MBP fragments 750 nM, HLA-DR 150 nM, overnight, 37°C
Protocol: DR/peptide complexes were then captured on the ELISA plate with immobilized L243 mAb (5 μg/ml in PBS) and blocked with 1% milk in PBS. HLA-DR-bound biotinylated peptide was quantitated with streptavidin-peroxidase (50 μl in PBST), using 3,3′,5,5′-tetramethylbenzidine (50 μl) as a substrate and stopping with 10% phosphoric acid (50 μl). ELISA was performed using standard protocol (https://www.abcam.com/protocols/sandwich-elisa-protocol).

HLA-DR2 = conditions: direct binding to purified molecules; cited from earlier work
Source text: (§1) MS therapeutic glatiramer acetate (GA) or Copaxone is a 40–100 amino acids polypeptide of a random sequence composed from alanine, lysine, glutamate, and tyrosine at a molar ratio of 4.5:3.6:1.5:1, respectively, that with high affinity binds directly to the purified HLA-DR1, -DR2, and -DR4 molecules ([45]). Combinatorial chemistry, which lays in the basis of GA, may result in assembling of multiple HLA class II epitopes, that at least in part may be not simply thermodynamically but rather kinetically preferable. Concluding our data provide novel vector of optimization of altered peptide ligand ...

HLA-DR1 = conditions: direct binding to purified molecules; cited from earlier work
Source text: as §1

HLA-DR4 = conditions: direct binding to purified molecules; cited from earlier work
Source text: as §1

HLA-DRB1*01:01 [3] = target: T1, HLA-DRB1*01:01; assay: Real-time ELISA kinetics of peptide loading (CLIP exchange) with or without HLA-DM; assay type: binding; conditions: thioredoxin-fused chimeric peptides with C-terminal part of MBP151-164 or MBP88-100, 150 nM, HLA-DR 150 nM, with or without HLA-DM 150 nM
HLA-DRB1*15:01 [4] = target: T2, HLA-DRB1*15:01; assay: as above; assay type: binding; conditions: thioredoxin-fused peptides 150 nM, HLA-DR 150 nM, HLA-DM 150 nM
Protocol: A real-time ELISA assay was used to assess kinetics of peptide exchange on HLA-DR, catalyzed by HLA-DM. The linker connecting the CLIP peptide to the N-terminus of the HLA-DR β chain was cut with thrombin (1 h, 20 U/mg, at room temperature). DR-CLIP complexes (150 nM) were incubated with or without HLA-DM (150 nM, which was estimated as minimal concentration for maximal rate, see Figure S1) in the presence of biotinylated either synthetic or thioredoxin-fused HA, pp65, MBP, and chimeric peptides (150 nM, which was experimentally estimated as minimal concentration required for reliable detection), for 7, 5, 3, 1, and 0 h. Each time point was mixed separately starting from the end of incubation time (7 h) every 2 h, afterwards all time points were loaded into the plate.

HLA-DRB1*15:01 [5] = target: T2, HLA-DRB1*15:01; assay: Kinetic competition assay with Trx-[pp65]bio in presence of HLA-DM; assay type: binding; conditions: HLA-DRB1*15:01 150 nM, HLA-DM 150 nM, Trx-[pp65]bio 150 nM, competitor 0-1 μM
Protocol: (§2) In a competition assay, kinetic experiments were carried out as described above. Kinetics were measured in the presence of increasing concentrations (0, 30, 100, 300, and 1,000 nM) of thioredoxin-fused HA, pp65, MBP, or chimeric peptides at timepoints 8, 6, 4, 2, and 0 h. Thioredoxin without any peptide was used as a control. ELISA was performed as done previously. All experiments were carried out in triplicates.

HLA-DRB1*15:01 [6] = target: T2, HLA-DRB1*15:01; assay: 18 h competition assay with Trx-[pp65]bio; assay type: binding; conditions: HLA-DRB1*15:01 150 nM, Trx-[pp65]bio 150 nM, competitor 7.8 nM-1 μM
Protocol: In a competition assay, biotinylated thioredoxin-fused HA and pp65 peptides (150 nM) were incubated with HLA-DR in the presence of HA, pp65, MBP or chimeric peptides (1,000, 500, 250, 125, 62.5, 31.2, 15.6, and 7.8 nM) for 18 h. Whole procedure was the same as described above.

HLA-DRB1*01:01 [7] = target: T1, HLA-DRB1*01:01; assay: Kinetic competition assay with Trx-[HA]bio in presence of HLA-DM; assay type: binding; conditions: HLA-DRB1*01:01 150 nM, HLA-DM 150 nM, Trx-[HA]bio 150 nM, competitor 0-1 μM, 0-8 h
Protocol: as §2

Substance: glatiramer acetate
- Binding to purified HLA-DR2 (HLA-DR2): high affinity
- Binding to purified HLA-DR1 (HLA-DR1): high affinity
- Binding to purified HLA-DR4 (HLA-DR4): high affinity

Substance: Trx-[MBP88−100]: thioredoxin-fused MBP88−100 ({thioredoxin-(SGGGG)3S}-VHFFKNIVTPRTP; also: biotin (EZ-Link Sulfo-NHS-LC-biotin), places not given here, His-tag, end not given here)
- Capable of efficiently binding HLA-DRB1*01:01 (kinetic assay) (HLA-DRB1*01:01 [3]): none

Substance: Trx-[MBP85−97]: thioredoxin-fused MBP85−97 (NPVVHFFKNIVTP; not fully specified (N-terminus); also: fused to thioredoxin via (SGGGG)3S linker at N-terminus, His-tag, position not given here, biotinylated with Sulfo-NHS-LC-biotin, site not given here)
- Rate of loading on HLA-DRB1*15:01 with or without HLA-DM (HLA-DRB1*15:01 [4]): similarly high rate
- Concentration from which binding of Trx-[pp65]bio was decreased (HLA-DRB1*15:01 [5]): 100 nM
- Thermodynamic inhibition capacity in comparison with Trx-[pp65] and Trx-[pp65-MBP91-97] (HLA-DRB1*15:01 [6]): up to half of order of magnitude greater

Substance: Trx-[MBP151−164]: thioredoxin-fused MBP151−164 ({thioredoxin-(SGGGG)3S}-LSKIFKLGGRDSRS; also: biotin (EZ-Link Sulfo-NHS-LC-biotin), places not given here, His-tag, end not given here)
- Capable of efficiently binding HLA-DRB1*01:01 (kinetic assay) (HLA-DRB1*01:01 [3]): none
- Concentration up to which the peptide failed to compete with Trx-[HA]bio (HLA-DRB1*01:01 [7]): > 1 µM

Next, values leading:

- Binding of MBP epitope library to HLA-DRB1*01:01 (HLA-DRB1*01:01 [1]): less efficiently bound
- Binding of MBP epitope library to HLA-DRB1*15:01 (HLA-DRB1*15:01 [2]): significantly diminished efficiency
Substance: MBP130−156: thioredoxin-fused MBP fragment of the MBP epitope library (GRASDYKSAHKGFKGVDAQGTLSKIFK; not fully specified (N-terminus); also: fused to thioredoxin via (SGGGG)3S linker at N-terminus, His-tag, position not given here, biotinylated with Sulfo-NHS-LC-biotin, site not given here)

- Binding of MBP epitope library to HLA-DRB1*15:01 (HLA-DRB1*15:01 [2]): significantly diminished efficiency
Substance: MBP25−54: thioredoxin-fused MBP fragment of the MBP epitope library (ARHGFLPRHRDTGILDSIGRFFGGDRGAPK; not fully specified (N-terminus); also: fused to thioredoxin via (SGGGG)3S linker at N-terminus, His-tag, position not given here, biotinylated with Sulfo-NHS-LC-biotin, site not given here)

- Binding of MBP epitope library to HLA-DRB1*01:01 (HLA-DRB1*01:01 [1]): less efficiently bound
Substance: MBP65−92: thioredoxin-fused MBP fragment of the MBP epitope library ({thioredoxin-(SGGGG)3S}-ARTAHYGSLPQKSHGRTQDENPVVHFFK; also: biotin (EZ-Link Sulfo-NHS-LC-biotin), places not given here, His-tag, end not given here)
